Results reported in US20190142963A1 (INDIANA UNIVERSITY RESEARCH AND TECHNOLOGY, published 2019).
Changes are numbered by the printed parent chain. Names and notes keep the numbering of the source. Like-named read-outs stand apart in the source and are kept apart here. Values belong to the molecule of their own block, whether it stands above or below them. Non-standard residues stand in square brackets, D forms with d. No end group written: not given here.

How the values were obtained:
Assay in all cases: cell-based or functional assay
human Klotho β [1] = target: T1, human Klotho β (human, UniProt Q86Z14 1-1044)
T1 sequence (looked up): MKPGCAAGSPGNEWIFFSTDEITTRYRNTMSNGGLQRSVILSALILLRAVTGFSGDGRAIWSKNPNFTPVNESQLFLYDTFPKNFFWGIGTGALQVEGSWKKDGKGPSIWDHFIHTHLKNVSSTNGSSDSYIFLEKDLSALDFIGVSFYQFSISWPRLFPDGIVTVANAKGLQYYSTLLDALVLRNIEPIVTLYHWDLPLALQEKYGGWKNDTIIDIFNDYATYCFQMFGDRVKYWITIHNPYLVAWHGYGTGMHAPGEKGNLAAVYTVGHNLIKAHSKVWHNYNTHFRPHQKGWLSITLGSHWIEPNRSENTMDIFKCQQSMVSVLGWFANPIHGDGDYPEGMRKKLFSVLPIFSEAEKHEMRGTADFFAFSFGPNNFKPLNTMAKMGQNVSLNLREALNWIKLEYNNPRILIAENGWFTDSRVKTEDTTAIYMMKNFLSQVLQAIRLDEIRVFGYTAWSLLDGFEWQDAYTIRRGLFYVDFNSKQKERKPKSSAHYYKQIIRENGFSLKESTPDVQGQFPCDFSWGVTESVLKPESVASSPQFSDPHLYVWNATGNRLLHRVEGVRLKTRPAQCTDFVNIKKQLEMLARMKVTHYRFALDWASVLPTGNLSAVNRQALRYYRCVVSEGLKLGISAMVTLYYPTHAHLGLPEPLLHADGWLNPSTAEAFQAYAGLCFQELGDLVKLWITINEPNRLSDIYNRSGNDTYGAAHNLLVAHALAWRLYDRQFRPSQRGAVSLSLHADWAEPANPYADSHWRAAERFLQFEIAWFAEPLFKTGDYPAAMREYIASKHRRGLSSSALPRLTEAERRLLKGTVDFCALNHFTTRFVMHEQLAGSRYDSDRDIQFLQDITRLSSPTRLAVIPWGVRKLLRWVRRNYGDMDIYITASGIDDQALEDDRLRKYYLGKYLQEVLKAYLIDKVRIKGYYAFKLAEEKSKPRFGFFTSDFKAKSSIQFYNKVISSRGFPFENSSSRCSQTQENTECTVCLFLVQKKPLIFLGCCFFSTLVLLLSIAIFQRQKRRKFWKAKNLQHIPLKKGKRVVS

mouse Klotho β (mouse) = mouse Klotho β (mouse) (UniProt Q99N32)
human Klotho β [2] = target: T1, human Klotho β; remark: listed apart in the source
human Klotho β [3] = target: T1, human Klotho β; remark: listed apart in the source
human Klotho β [4] = target: T1, human Klotho β; remark: listed apart in the source
human Klotho β [5] = target: T1, human Klotho β; remark: listed apart in the source
human Klotho β [6] = target: T1, human Klotho β; remark: listed apart in the source
human Klotho β [7] = target: T1, human Klotho β; remark: listed apart in the source

mouse Klotho β (mouse), sequence (Q99N32 whole entry): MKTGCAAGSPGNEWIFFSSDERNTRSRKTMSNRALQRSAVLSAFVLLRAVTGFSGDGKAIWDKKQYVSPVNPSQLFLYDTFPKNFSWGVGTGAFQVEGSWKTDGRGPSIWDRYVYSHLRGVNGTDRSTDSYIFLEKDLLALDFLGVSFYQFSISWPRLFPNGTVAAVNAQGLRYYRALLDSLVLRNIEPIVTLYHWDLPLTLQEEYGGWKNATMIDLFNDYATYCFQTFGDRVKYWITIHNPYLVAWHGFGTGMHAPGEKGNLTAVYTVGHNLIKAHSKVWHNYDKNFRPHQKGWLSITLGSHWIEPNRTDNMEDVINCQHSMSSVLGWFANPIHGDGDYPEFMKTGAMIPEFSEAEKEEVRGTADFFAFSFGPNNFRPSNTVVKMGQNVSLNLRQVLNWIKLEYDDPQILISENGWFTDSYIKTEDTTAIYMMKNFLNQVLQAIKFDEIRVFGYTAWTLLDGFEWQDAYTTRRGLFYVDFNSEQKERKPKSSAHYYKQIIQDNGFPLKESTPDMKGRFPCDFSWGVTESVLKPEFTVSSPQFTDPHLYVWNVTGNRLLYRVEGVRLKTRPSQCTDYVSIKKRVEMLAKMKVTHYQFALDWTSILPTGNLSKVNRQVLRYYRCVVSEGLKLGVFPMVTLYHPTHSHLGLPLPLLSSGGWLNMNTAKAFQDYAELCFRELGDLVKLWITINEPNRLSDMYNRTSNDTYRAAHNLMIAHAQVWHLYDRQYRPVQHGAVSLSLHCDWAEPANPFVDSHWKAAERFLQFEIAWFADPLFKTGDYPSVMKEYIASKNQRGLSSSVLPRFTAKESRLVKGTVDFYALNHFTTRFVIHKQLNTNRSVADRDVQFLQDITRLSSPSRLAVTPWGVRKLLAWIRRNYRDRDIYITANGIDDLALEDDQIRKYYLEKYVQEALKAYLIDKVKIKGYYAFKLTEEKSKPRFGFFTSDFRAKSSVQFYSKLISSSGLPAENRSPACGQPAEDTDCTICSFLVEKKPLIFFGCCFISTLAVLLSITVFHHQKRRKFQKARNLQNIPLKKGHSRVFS

Molecule: FGF19 (from UniProt O95750 25-216) (ligand)
% maximal activity, Erk1/2 phosphorylation in 293T HEK hKLB cells (FIG. 9B) (human Klotho β [1]): 27% | EC-50 of Erk1/2 phosphorylation in 293T HEK hKLB cells (FIG. 9B) (human Klotho β [1]): 148 nM | potency (agonism) in cells that overexpressed human KLB (FIG. 11A) (human Klotho β [1]): 65.8 | potency (agonism) in cells that overexpressed mouse KLB (FIG. 11B) (mouse Klotho β (mouse)): 25.7

B1: FGF21 25mer A20 (peptide)
peptide: PPDVGSSDPLSMVGPSQGRAPSYAS
% max activity of antagonism of FGF21 (pErk1/2, 293 HEK hKLB cells) (human Klotho β [2]): 73.5% | IC-50 of antagonism of FGF21 (pErk1/2, 293 HEK hKLB cells) (human Klotho β [2]): 3.23 µM | IC-50 of antagonism of FGF21 (pErk1/2, 293 HEK hKLB cells) (human Klotho β [3]): 2.21 µM

B2: FGF21 25mer A1 (peptide)
peptide: APDVGSSDPLSMVGPSQGRSPSYAS
IC-50 of antagonism of FGF21 (pErk1/2, 293 HEK hKLB cells) (human Klotho β [4]): 0.39 µM | % max activity of antagonism of FGF21 (pErk1/2, 293 HEK hKLB cells) (human Klotho β [2]): 100% | IC-50 of antagonism of FGF21 (pErk1/2, 293 HEK hKLB cells) (human Klotho β [2]): 33 nM

B3: FGF21 25mer A6 (peptide)
peptide: PPDVGASDPLSMVGPSQGRSPSYAS
% max activity of antagonism of FGF21 (pErk1/2, 293 HEK hKLB cells) (human Klotho β [2]): 89.2% | IC-50 of antagonism of FGF21 (pErk1/2, 293 HEK hKLB cells) (human Klotho β [2]): 2.65 µM | IC-50 of antagonism of FGF21 (pErk1/2, 293 HEK hKLB cells) (human Klotho β [3]): 2.44 µM

B6: FGF21 25mer A4 (peptide)
peptide: PPDAGSSDPLSMVGPSQGRSPSYAS
% max activity of antagonism of FGF21 (pErk1/2, 293 HEK hKLB cells) (human Klotho β [2]): 63.6% | IC-50 of antagonism of FGF21 (pErk1/2, 293 HEK hKLB cells) (human Klotho β [2]): 5.93 µM | IC-50 of antagonism of FGF21 (pErk1/2, 293 HEK hKLB cells) (human Klotho β [3]): 2.69 µM

B7: FGF19 S10A26 (peptide)
peptide: LETDSMDPF[dS]LVTGLEAVRSPSFEA-NH2
IC50 of antagonism of FGF21 (assay of Example 1) (human Klotho β [5]): 10.9 nM

B8: FGF19 A26 (peptide)
peptide: LETDSMDPFGLVTGLEAVRSPSFEA
IC50 of antagonism of FGF21 (assay of Example 1) (human Klotho β [5]): 17.9 nM

B9: FGF21 25mer A3 (peptide)
peptide: PPAVGSSDPLSMVGPSQGRSPSYAS
% max activity of antagonism of FGF21 (pErk1/2, 293 HEK hKLB cells) (human Klotho β [2]): 87.8% | IC-50 of antagonism of FGF21 (pErk1/2, 293 HEK hKLB cells) (human Klotho β [2]): 2.28 µM | IC-50 of antagonism of FGF21 (pErk1/2, 293 HEK hKLB cells) (human Klotho β [3]): 1.5 µM

B13: FGF21 25mer A10 (peptide)
peptide: PPDVGSSDPASMVGPSQGRSPSYAS
% max activity of antagonism of FGF21 (pErk1/2, 293 HEK hKLB cells) (human Klotho β [2]): 76% | IC-50 of antagonism of FGF21 (pErk1/2, 293 HEK hKLB cells) (human Klotho β [2]): 3.32 µM | IC-50 of antagonism of FGF21 (pErk1/2, 293 HEK hKLB cells) (human Klotho β [3]): 2.75 µM

B14: FGF21 25mer A13 (peptide)
peptide: PPDVGSSDPLSMAGPSQGRSPSYAS
% max activity of antagonism of FGF21 (pErk1/2, 293 HEK hKLB cells) (human Klotho β [2]): 87.9% | IC-50 of antagonism of FGF21 (pErk1/2, 293 HEK hKLB cells) (human Klotho β [2]): 2.11 µM | IC-50 of antagonism of FGF21 (pErk1/2, 293 HEK hKLB cells) (human Klotho β [3]): 4.6 µM

B18: FGF21 25mer A18 (peptide)
peptide: PPDVGSSDPLSMVGPSQARSPSYAS
IC-50 of antagonism of FGF21 (pErk1/2, 293 HEK hKLB cells) (human Klotho β [4]): 0.15 µM | % max activity of antagonism of FGF21 (pErk1/2, 293 HEK hKLB cells) (human Klotho β [2]): 103% | IC-50 of antagonism of FGF21 (pErk1/2, 293 HEK hKLB cells) (human Klotho β [2]): 139 nM

B19: FGF19 S10 (peptide)
peptide: LETDSMDPF[dS]LVTGLEAVRSPSFES-NH2
IC50 of antagonism of FGF21 (assay of Example 1) (human Klotho β [5]): 194 nM

B20: FGF21 25mer A19 (peptide)
peptide: PPDVGSSDPLSMVGPSQGASPSYAS
IC-50 of antagonism of FGF21 (pErk1/2, 293 HEK hKLB cells) (human Klotho β [4]): 0.1 µM | % max activity of antagonism of FGF21 (pErk1/2, 293 HEK hKLB cells) (human Klotho β [2]): 100% | IC-50 of antagonism of FGF21 (pErk1/2, 293 HEK hKLB cells) (human Klotho β [2]): 102 nM

B21: FGF21 (ligand)
chain: HPIPDSSPLLQFGGQVRQRYLYTDDAQQTEAHLEIREDGTVGGAADQSPESLLQLKALKPGVIQILGVKTSRFLCQRPDGALYGSLHFDPEACSFRELLLEDGYNVYQSEAHGLPLHLPGNKSPHRDPAPRGPARFLPLPGLPPALPEPPGILAPQPPDVGSSDPLSMVGPSQGRSPSYAS
% maximal activity, Erk1/2 phosphorylation in 293T HEK hKLB cells (FIG. 9A) (human Klotho β [7]): 100%

B25: FGF21 25mer A2 (peptide)
peptide: PADVGSSDPLSMVGPSQGRSPSYAS
IC-50 of antagonism of FGF21 (pErk1/2, 293 HEK hKLB cells) (human Klotho β [4]): 0.62 µM | % max activity of antagonism of FGF21 (pErk1/2, 293 HEK hKLB cells) (human Klotho β [2]): 98.5% | IC-50 of antagonism of FGF21 (pErk1/2, 293 HEK hKLB cells) (human Klotho β [2]): 137 nM

Further lines, results first:

IC50 of antagonism of FGF21 (assay of Example 1) (human Klotho β [5]): 52.5 nM | % Activity vs C25 (human Klotho β [6]): 271% | IC50 of antagonism of FGF21 (assay of Example 1) (human Klotho β [6]): 152 nM
B4: FGF21 D19 (peptide)
peptide: PPDVGSSDPLSMVGPSQG[dR]SPSYAS-NH2

IC50 of antagonism of FGF21 (assay of Example 1) (human Klotho β [5]): 14.1 nM
B5: FGF21 D11D19 (peptide)
peptide: PPDVGSSDPL[dS]MVGPSQG[dR]SPSYAS-NH2

IC-50 of antagonism of FGF21 (pErk1/2, 293 HEK hKLB cells) (human Klotho β [4]): 0.16 µM | % max activity of antagonism of FGF21 (pErk1/2, 293 HEK hKLB cells) (human Klotho β [2]): 100% | IC-50 of antagonism of FGF21 (pErk1/2, 293 HEK hKLB cells) (human Klotho β [2]): 168 nM | IC50 of antagonism of FGF21 (assay of Example 1) (human Klotho β [5]): 182 nM | % Activity vs C25 (human Klotho β [6]): 100% | IC50 of antagonism of FGF21 (assay of Example 1) (human Klotho β [6]): 283 nM
B10: FGF21 157-181 (peptide)
peptide: PPDVGSSDPLSMVGPSQGRSPSYAS-NH2

% max activity of antagonism of FGF21 (pErk1/2, 293 HEK hKLB cells) (human Klotho β [2]): 70.5% | IC-50 of antagonism of FGF21 (pErk1/2, 293 HEK hKLB cells) (human Klotho β [2]): 2.24 µM | IC-50 of antagonism of FGF21 (pErk1/2, 293 HEK hKLB cells) (human Klotho β [3]): 2.57 µM
B11: FGF21 25mer A21 (peptide)
peptide: PPDVGSSDPLSMVGPSQGRSASYAS

potency as agonist relative to native FGF21 (human Klotho β [7]): ~5 fold
B12: FGF21-19 K194A (ligand)
chain: HPIPDSSPLLQFGGQVRQRYLYTDDAQQTEAHLEIREDGTVGGAADQSPESLLQLKALKPGVIQILGVKTSRFLCQRPDGALYGSLHFDPEACSFRELLLEDGYNVYQSEAHGLPLHLPGNKSPHRDPAPRGPARFLPLPGLPPALPEPPGILAPQPLETDSMDPFGLVTGLEAVRSPSFEA

% max activity of antagonism of FGF21 (pErk1/2, 293 HEK hKLB cells) (human Klotho β [2]): 73.6% | IC-50 of antagonism of FGF21 (pErk1/2, 293 HEK hKLB cells) (human Klotho β [2]): 3.98 µM | IC-50 of antagonism of FGF21 (pErk1/2, 293 HEK hKLB cells) (human Klotho β [3]): 4.16 µM
B15: FGF21 25mer A23 (peptide)
peptide: PPDVGSSDPLSMVGPSQGRSPSAAS

IC-50 of antagonism of FGF21 (pErk1/2, 293 HEK hKLB cells) (human Klotho β [4]): 0.06 µM | % max activity of antagonism of FGF21 (pErk1/2, 293 HEK hKLB cells) (human Klotho β [2]): 99% | IC-50 of antagonism of FGF21 (pErk1/2, 293 HEK hKLB cells) (human Klotho β [2]): 45 nM
B16: FGF21 25mer A25 (peptide)
peptide: PPDVGSSDPLSMVGPSQGRSPSYAA

IC50 of antagonism of FGF21 (assay of Example 1) (human Klotho β [5]): 19.9 nM | % Activity vs C25 (human Klotho β [6]): 596% | IC50 of antagonism of FGF21 (assay of Example 1) (human Klotho β [6]): 57.3 nM
B17: FGF21 D11 (peptide)
peptide: PPDVGSSDPL[dS]MVGPSQGRSPSYAS-NH2

% maximal activity, Erk1/2 phosphorylation in 293T HEK hKLB cells (FIG. 9A) (human Klotho β [7]): 100%
B22: FGF21 P171A (ligand)
chain: B21 chain with P171A

% maximal activity, Erk1/2 phosphorylation in 293T HEK hKLB cells (FIG. 9A) (human Klotho β [7]): 6%
B23: FGF21 D164A (ligand)
chain: B21 chain with D164A

% max activity of antagonism of FGF21 (pErk1/2, 293 HEK hKLB cells) (human Klotho β [2]): 78.5% | IC-50 of antagonism of FGF21 (pErk1/2, 293 HEK hKLB cells) (human Klotho β [2]): 752 nM | IC-50 of antagonism of FGF21 (pErk1/2, 293 HEK hKLB cells) (human Klotho β [3]): 0.67 µM
B24: FGF21 25mer A22 (peptide)
peptide: PPDVGSSDPLSMVGPSQGRSPAYAS
